In PMC7954794, “Protein context shapes the specificity of SH3 domain-mediated interactions in vivo” (Nature Communications, 2021):

System: PPIs identified as affected by the SH3 domain deletions
Assay: Liquid DHFR-PCA low-throughput validation of PPIs affected by SH3 deletion (Fig. S1D-E)
Type: cell-based, Saccharomyces cerevisiae
Details: label = prey, liquid DHFR-PCA, prey _1 = lost, _2 = gained in screen
In short: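 Yeast diploids from DHFR-PCA mating grown 48 h in synthetic complete MSG medium pH 6.0 with NAT and HPH, normalized to 1 OD and diluted to 0.1 OD in liquid PCA selection medium. Growth followed by OD every 15 min for 72 h at 30 °C.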

Molecule	Ratio (Deletedscore / WTscore) (bait BBC1)	Ratio (Deletedscore / WTscore) (bait LSB1)	Ratio (Deletedscore / WTscore) (bait LSB3)	Ratio (Deletedscore / WTscore) (bait MYO3)	Ratio (Deletedscore / WTscore) (bait PIN3)	Ratio (Deletedscore / WTscore) (bait BEM1-2)	Ratio (Deletedscore / WTscore) (bait MYO5)	Ratio (Deletedscore / WTscore) (bait RVS167)
YLR337C_1 (protein, UniProt P37370 1-817, looked up) Verprolin: MAGAPAPPPPPPPPALGGSAPKPAKSVMQGRDALLGDIRKGMKLKKAETNDRSAPIVGGGVVSSASGSSGTVSSKGPSMSAPPIPGMGAPQLGDILAGGIPKLKHINNNASTKPSPSASAPPIPGAVPSVAAPPIPNAPLSPAPAVPSIPSSSAPPIPDIPSSAAPPIPIVPSSPAPPLPLSGASAPKVPQNRPHMPSVRPAHRSHQRKSSNISLPSVSAPPLPSASLPTHVSNPPQAPPPPPTPTIGLDSKNIKPTDNAVSPPSSEVPAGGLPFLAEINARRSERGAVEGVSSTKIQTENHKSPSQPPLPSSAPPIPTSHAPPLPPTAPPPPSLPNVTSAPKKATSAPAPPPPPLPAAMSSASTNSVKATPVPPTLAPPLPNTTSVPPNKASSMPAPPPPPPPPPGAFSTSSALSASSIPLAPLPPPPPPSVATSVPSAPPPPPTLTTNKPSASSKQSKISSSSSSSAVTPGGPLPFLAEIQKKRDDRFVVGGDTGYTTQDKQEDVIGSSKDDNVRPSPISPSINPPKQSSQNGMSFLDEIESKLHKQTSSNAFNAPPPHTDAMAPPLPPSAPPPPITSLPTPTASGDDHTNDKSETVLGMKKAKAPALPGHVPPPPVPPVLSDDSKNNVPAASLLHDVLPSSNLEKPPSPPVAAAPPLPTFSAPSLPQQSVSTSIPSPPPVAPTLSVRTETESISKNPTKSPPPPPSPSTMDTGTSNSPSKNLKQRLFSTGGSTLQHKHNTHTNQPDVDVGRYTIGGSNSIVGAKSGNERIVIDDSRFKWTNVSQMPKPRPFQNKTKLYPSGKGSSVPLDLTLFT	0.3637	0.5725	0.8547	0.5955	0.5606	–	–	–
YGR281W_1 (protein, UniProt P53049 1-1477, looked up) Oligomycin resistance …: MTITVGDAVSETELENKSQNVVLSPKASASSDISTDVDKDTSSSWDDKSLLPTGEYIVDRNKPQTYLNSDDIEKVTESDIFPQKRLFSFLHSKKIPEVPQTDDERKIYPLFHTNIISNMFFWWVLPILRVGYKRTIQPNDLFKMDPRMSIETLYDDFEKNMIYYFEKTRKKYRKRHPEATEEEVMENAKLPKHTVLRALLFTFKKQYFMSIVFAILANCTSGFNPMITKRLIEFVEEKAIFHSMHVNKGIGYAIGACLMMFVNGLTFNHFFHTSQLTGVQAKSILTKAAMKKMFNASNYARHCFPNGKVTSFVTTDLARIEFALSFQPFLAGFPAILAICIVLLIVNLGPIALVGIGIFFGGFFISLFAFKLILGFRIAANIFTDARVTMMREVLNNIKMIKYYTWEDAYEKNIQDIRTKEISKVRKMQLSRNFLIAMAMSLPSIASLVTFLAMYKVNKGGRQPGNIFASLSLFQVLSLQMFFLPIAIGTGIDMIIGLGRLQSLLEAPEDDPNQMIEMKPSPGFDPKLALKMTHCSFEWEDYELNDAIEEAKGEAKDEGKKNKKKRKDTWGKPSASTNKAKRLDNMLKDRDGPEDLEKTSFRGFKDLNFDIKKGEFIMITGPIGTGKSSLLNAMAGSMRKTDGKVEVNGDLLMCGYPWIQNASVRDNIIFGSPFNKEKYDEVVRVCSLKADLDILPAGDMTEIGERGITLSGGQKARINLARSVYKKKDIYLFDDVLSAVDSRVGKHIMDECLTGMLANKTRILATHQLSLIERASRVIVLGTDGQVDIGTVDELKARNQTLINLLQFSSQNSEKEDEEQEAVVAGELGQLKYESEVKELTELKKKATEMSQTANSGKIVADGHTSSKEERAVNSISLKIYREYIKAAVGKWGFIALPLYAILVVGTTFCSLFSSVWLSYWTENKFKNRPPSFYMGLYSFFVFAAFIFMNGQFTILCAMGIMASKWLNLRAVKRILHTPMSYIDTTPLGRILNRFTKDTDSLDNELTESLRLMTSQFANIVGVCVMCIVYLPWFAIAIPFLLVIFVLIADHYQSSGREIKRLEAVQRSFVYNNLNEVLGGMDTIKAYRSQERFLAKSDFLINKMNEAGYLVVVLQRWVGIFLDMVAIAFALIITLLCVTRAFPISAASVGVLLTYVLQLPGLLNTILRAMTQTENDMNSAERLVTYATELPLEASYRKPEMTPPESWPSMGEIIFENVDFAYRPGLPIVLKNLNLNIKSGEKIGICGRTGAGKSTIMSALYRLNELTAGKILIDNVDISQLGLFDLRRKLAIIPQDPVLFRGTIRKNLDPFNERTDDELWDALVRGGAIAKDDLPEVKLQKPDENGTHGKMHKFHLDQAVEEEGSNFSLGERQLLALTRALVRQSKILILDEATSSVDYETDGKIQTRIVEEFGDCTILCIAHRLKTIVNYDRILVLEKGEVAEFDTPWTLFSQEDSIFRSMCSRSGIVENDFENRS	0.5928	–	–	0.4945	–	0.6055	0.6948	–
YHR114W_1 (protein, UniProt P38822 1-633, looked up) Protein BZZ1: MSADLSIGNEIKDSFKETHKWVQNNLKWLKDIEQFYRERAKLEKDYSERLSRLSAEYFNKKSSTSVPISVGDTPTTTPGSIEAAGVVAWNEILSQTDMISKDHDQLSTDFENHVANQLSGLFTKLDMTLSKINGFNNDMVNKKDNIYHELEKAKKDYDEACSTMEMARNRYTKASNDRNKKKLDEKEMEMNKCKNEYLIKINQANRTKDKYYFQDVPEVLDLLQDVNEAKTLFLNDLWLKAASVENDLGANVSKRLQAANSVVKQNKPSLNTAIFIKHNLKNWKEPQDFVYKPSPVWHDDEKFAVPSSLEVEDLRIKLAKAENDYNSLQDKTQNELSKLSTLNKIKHEMKTNEDNINATKFYDTLKEYLNVVSPFTSHETLKLQAEVQIESIQNNVPEEYDLSTDNIDLSKTKKKSGIFSKFKHNILNVDSKPSSGGSTGNGNGGPLHITSLFNTSRRTRLGSAPNNAGEDSDNNSIRTTSTNNTKKTTQNSSDDGKNKVLYAYVQKDDDEITITPGDKISLVARDTGSGWTKINNDTTGETGLVPTTYIRISSAATVKANDRGPAPEVPPPRRSTLPVRTMEAIYAYEAQGDDEISIDPGDIITVIRGDDGSGWTYGECDGLKGLFPTSYCK	0.6315	–	0.7048	0.5608	–	–	0.7759	0.6256
YLR196W_1 (protein, UniProt P21304 1-576, looked up) Periodic tryptophan protein 1: MISATNWVPRGFSSEFPEKYVLDDEEVERINQLAQLNLDDAKATLEEAEGESGVEDDAATGSSNKLKDQLDIDDDLKEYNLEEYDDEEIADNEGGKDVSMFPGLSNDSDVKFHEGEKGEDPYISLPNQEDSQEEKQELQVYPSDNLVLAARTEDDVSYLDIYVYDDGAGFHSSDIPVEEGDEADPDVARGLVRDPALYVHHDLMLPAFPLCVEWLDYKVGSNSEEAANYAAIGTFDPQIEIWNLDCVDKAFPDMILGEPLDNSMVSLKSKKKKKKSKTGHITTHHTDAVLSMAHNKYFRSVLASTSADHTVKLWDLNSGNAARSLASIHSNKNVSSSEWHMLNGSILLTGGYDSRVALTDVRISDESQMSKYWSAMAGEEIETVTFASENIILCGTDSGNVYSFDIRNNENRKPVWTLKAHDAGISTLCSNKFIPGMMSTGAMGEKTVKLWKFPLDDATNTKGPSMVLSRDFDVGNVLTSSFAPDIEVAGTMVIGGVNKVLKLWDVFTNRSVRKSFKSELENVQARAKEEAQKIGKSSRIARKYTSNDNPDTVITIDDQGEDEEEREGGDEHDDMA	1.08	–	–	–	–	–	–	–
YKL117W_1 (protein, UniProt P28707 2-216, looked up) Co-chaperone protein SBA1: SDKVINPQVAWAQRSSTTDPERNYVLITVSIADCDAPELTIKPSYIELKAQSKPHVGDENVHHYQLHIDLYKEIIPEKTMHKVANGQHYFLKLYKKDLESEYWPRLTKEKVKYPYIKTDFDKWVDEDEQDEVEAEGNDAAQGMDFSQMMGGAGGAGGAGGMDFSQMMGGAGGAGSPDMAQLQQLLAQSGGNLDMGDFKENDEEDEEEEIEPEVKA	0.6627	–	–	–	–	–	–	–
YML016C_1 (protein, UniProt P26570 2-692, looked up) Serine/threonine-protein …: GNSSSKSSKKDSHSNSSSRNPRPQVSRTETSHSVKSAKSNKSSRSRRSLPSSSTTNTNSNVPDPSTPSKPNLEVNHQRHSSHTNRYHFPSSSHSHSNSQNELLTTPSSSSTKRPSTSRRSSYNTKAAADLPPSMIQMEPKSPILKTNNSSTHVSKHKSSYSSTYYENALTDDDNDDKDNDISHTKRFSRSSNSRPSSIRSGSVSRRKSDVTHEEPNNGSYSSNNQENYLVQALTRSNSHASSLHSRKSSFGSDGNTAYSTPLNSPGLSKLTDHSGEYFTSNSTSSLNHHSSRDIYPSKHISNDDDIENSSQLSNIHASMENVNDKNNNITDSKKDPNEEFNDIMQSSGNKNAPKKFKKPIDIDETIQKLLDAGYAAKRTKNVCLKNNEILQICIKAREIFLSQPSLLELSPPVKIVGDVHGQYGDLLRLFTKCGFPPSSNYLFLGDYVDRGKQSLETILLLFCYKIKYPENFFLLRGNHECANVTRVYGFYDECKRRCNIKIWKTFIDTFNTLPLAAIVAGKIFCVHGGLSPVLNSMDEIRHVVRPTDVPDFGLINDLLWSDPTDSPNEWEDNERGVSYCYNKVAINKFLNKFGFDLVCRAHMVVEDGYEFFNDRSLVTVFSAPNYCGEFDNWGAVMSVSEGLLCSFELLDPLDSAALKQVMKKGRQERKLANQQQQMMETSITNDNESQQ	0.8012	–	–	0.8355	–	0.6049	–	–
